Measured values: patent US8821943B2, “Methods and compositions for targeted delivery of therapeutic agents” (Board of Regents of the University of Nebraska, priority 2006, dated 2014)
Where two headings read alike, the source gives them in different places. Blank lines part the entries; values can stand above or below the compound they belong to.

Experiments:
[1] = in vivo, cited from earlier work
[2] = 3H-mannitol transport across excised bovine cornea (corneal barrier integrity); assay type: in vitro ADME; details: read-out: apparent permeability coefficient of mannitol
Description: The corneal barrier integrity in the ex vivo bovine model of Example 5 was also studied by analysis of ^3H-mannitol transport, with or without nanoparticle exposure. ^3H-mannitol was obtained from American Radiolabeled Chemicals, Inc. (St. Louis, Mo.). ^3H-mannitol transport across excised bovine cornea was performed without any treatment or after dosing the bovine ex vivo eye model with a 50 μl drop of assay buffer or 50 μl of 1 mg/ml nanoparticle suspension followed by incubation up to 60 min with buffer treatments as described above. Temperature was maintained at 37° C.
At 0, 5 and 60 minutes after assay buffer drop instillation and 60 min after nanoparticles drop instillation, the eyes were washed thrice with assay buffer (1 ml each time) and the corneas were isolated from the eyeball. The tissues were then mounted in modified Ussing chambers (Navicyte, Reno, N.Y.) for mannitol transport study. The aperture area of the chambers is 0.64 cm^2. The corneal area exposed was expected to be slightly greater than the chamber aperture area due to corneal curvature. ^3H-mannitol (1.5 ml; 1 μCi/ml) was placed in the donor chamber (epithelial to endothelial transport) and plain assay buffer (1.5 ml) was placed in the receiver chamber. At various time points up to 4 hours, 200 μl samples were removed from the receiver chamber and replaced with an equal volume of fresh assay buffer. To each sample, 4 ml of scintillation fluid (Fisher Scientific, NJ) was added and the radioactivity was quantified using a liquid scintillation counter. […] Data are expressed as mean±standard deviation for n=4.

[3] = system: excised bovine conjunctiva; experiment: Nanoparticle transport and uptake, excised bovine conjunctiva in modified Ussing chambers; assay type: in vitro ADME
Description: (§1) Nanoparticle uptake and transport studies were performed using excised bovine cornea and conjunctiva mounted in vertical diffusion chambers. Modified Ussing chambers (Navicyte, Reno, N.Y.) were used to mount bovine corneas and conjunctivas for transport studies. The tissues were exposed to 1.5 ml of assay buffer with either conjugated or unconjugated nanoparticles (100 μg/ml) on the mucosal/tear side (donor side). The area of exposure is 0.64 cm^2 for conjunctiva and slightly greater for cornea due to curvature. The receiver side was exposed to 1.5 ml of assay buffer without nanoparticles. The buffers were pre-equilibrated to 37° C. or 4° C. as required and the chambers were maintained at the desired temperature. […] The experiment was terminated at 4 hours and the samples were stored in polypropylene tubes at 4° C. until analysis.
(§2) At the end of 4 hour transport studies, the tissue area exposed to particle suspension (aperture area: 0.64 cm^2) were cut and washed thrice with assay buffer followed by the acid buffer (pH 5.0). The tissues were then homogenized in 2% Triton-X using Tissue Tearor™. The tissue debris was separated by centrifugation at 3000 rpm (Marathon Micro AR) for 10 minutes. The supernatant was collected to analyze the amount of nanoparticles taken up by the tissue. The supernatant was analyzed by spectrofluorometry at excitation and emission wavelengths of 505 and 515 nm, respectively.

[4] = system: bovine corneal epithelium, stroma, endothelium and aqueous humor; experiment: Eye drop nanoparticle uptake in excised (ex vivo) bovine eye model; assay type: in vitro ADME
Description: The precorneal residence of eye drops is very short and effective delivery to the cornea requires rapid binding and entry of drugs or carriers in vivo. The in vivo situation was simulated using an intact bovine eye for an ex vivo model. […] Then, the particle uptake at 5 and 60 min was measured following thorough washing of the eye surface to remove any loosely adherent particles. The uptake was expected to be the highest for the solutes or carriers tightly bound to the corneal surface or for those that are rapidly taken up by the corneal epithelium. To maintain the surface moisture and to simulate tear flow in part, buffer drops (50 μl) were administered every 15 min, and the water bath was sealed.
Freshly excised bovine eyes were obtained from a local slaughterhouse (Nebraska Beef, Omaha, Nebr.). The experiments were initiated within 2-3 hours after sacrifice. For the experiment, bovine eyes were placed in Teflon coated wells containing assay buffer to immerse the posterior segment, while exposing the cornea towards the surface. The Teflon coated well plate was placed in a shaking water bath maintained at 37° C. and the water bath was sealed with Saran Wrap™ (S.C. Johnson & Son, Inc., Racine, Wis.). Alternatively, the setup was placed in a cold room maintained at 4° C. Prior to dosing, the eyes were equilibrated for about 30 min with assay buffer at 37° C. or 4° C. as required. The measured temperatures of the vitreous humor and aqueous humor in the 37° C. study were ˜37° C. and ˜35° C., respectively. The measured temperature was ˜5° C. for both vitreous humor as well as aqueous humor in the 4° C. study. In the ex vivo studies, either 5 or 60 min time points were chosen since eye drops are rapidly cleared from the tissue surface and because high solute uptake is desired in a short time with eye drops.
Ex vivo model studies involved administration of a 50 μl dosing solution/suspension drop to the cornea followed by 50 μl drops of assay buffer on the cornea every 15 minutes to maintain corneal moisture. At the end of 0, 5, or 60 minutes study, the corneal surface was washed thrice with assay buffer (1 ml each time) followed by three washes with acid buffer (1 ml each time; assay buffer adjusted to pH 5.0 with HCl) to remove any loosely adherent nanoparticles prior to tissue analysis. The same protocol was followed even when plain buffer drops were assessed. To initiate the uptake experiment, a 50 μl eye drop of 10 mg/ml (in studies assessing the influence of epithelium in particle uptake) or 1 mg/ml nanoparticle suspension (unconjugated nanoparticles with carboxylate functionalities, deslorelin-CA and transferrin-CA) was topically administered to isolated bovine eyeballs. Buffer and wash treatments were performed as described above. At 5 and 60 minutes after drop instillation, the incubation was terminated and the corneal epithelium, stroma, endothelium and aqueous humor (0.5 ml) were isolated from the eyeball. The tissues were homogenized in 2% Triton-X. The supernatant obtained after centrifuging tissue homogenate at 5000 rpm (Marathon Micro AR, Fisher Scientific) for 10 minutes was analyzed by spectrofluorometry at excitation and emission wavelengths of 505 and 515 nm, respectively.

excised bovine cornea = experiment: Nanoparticle transport and uptake, excised bovine cornea in modified Ussing chambers; assay type: in vitro ADME
Description: as §1, §2

[5] = Particle size, polydispersity and zeta-potential by dynamic light scattering; assay type: physicochemical; details: Table 2, polystyrene nanoparticles
Description: Nanoparticle carrier particles were formed by the methods of the preceding Example, and characterized as follows. The particle size and the zeta-potential were measured using Zeta Plus zeta-potential analyzer (Brookhaven Instruments Ltd., New York, N.Y.), which employs the dynamic light scattering technique for particle size measurement. The particle size and zeta-potential measurements were made after 1:1000 dilution of particle stock in filtered deionized water. Further, the particles were visualized using a transmission electron microscope (TEM). The carbon-coated grids were floated on a suspension droplet of plain or functionalized nanoparticles on a flexible plastic film (Parafilm, Pechiney Plastic Packaging, Neenah, Wis.) to allow the adsorption of nanoparticles onto the grid. After drying the particles, uranyl acetate was added as a negative stain to the carbon grid and allowed to react with the particles. This procedure makes the particles electron dense, allowing their visualization using an electron microscope. The particles were photographed using EM410 Phillips electron microscope (Eindhoven, The Netherlands) set at 60 kV and a magnification of 153000×.
Characterization of particles: The particle size and the zeta-potential were measured using ZetaPlus® zeta-potential analyzer, Brookhaven Instruments Ltd. (New York, N.Y.), which employs the dynamic light scattering technique for particle size measurement. The particle size and zeta-potential measurements were carried out after 1:1000 dilution of particle stock in filtered deionized water before lyophilization in filtered deionized water. The effective diameter of conjugated nanoparticles was higher than that of unconjugated nanoparticles.
Particle Size Analysis: Particle size and zeta-potential of the nanoparticles before and after conjugation following lyophilization were measured in double distilled water (100 μl of particle/1 ml of water) using dynamic light scattering (DLS). After lyophilization the plasmid loaded particles were weighed (1 mg) into glass Kimble tubes. To each tube, 1 ml of double distilled water was added and vortexed at high speed (Vortex Genie, Scientific Industries, Bohemia, N.Y.) till the particles were resuspended. The particle size and zeta potential was determined using dynamic light scattering after dilution (1:10 in double distilled water) (Brookhaven Instruments Corp., Holtsville, N.Y.). Nanoparticle size after lyophilization was 210.4±0.68 nm and zeta potential was −32.85±0.87 mV. Nanoparticle size and zeta potential was measured after conjugation with deslorelin and transferrin. Similarly, the unconjugated nanoparticles were also treated under the same conditions as with the conjugated nanoparticles (the conjugation protocol as mentioned above).
Transport studies were conducted in bovine nasal tissue. Bovine nasal tissue was obtained from freshly slaughtered cattle, and different regions (MTA, MTP, ITP) were prepared as described in Example 13. Nanoparticles coupled to deslorelin or transferring via aldehyde sulfate moieties were prepared as described in Example 3. The nanoparticle size was measured using a Zeta Plus Analyzer (Brookhaven Instruments Limited, UK). Particle size was analyzed before and after ligand conjugation in deionized filtered water.

LHRH-receptor = experiment: Receptor binding assays (kinetic, saturation, competition) with 125I-deslorelin in bovine pituitary and nasal tissue homogenates; details: for IC50: read-out: Low affinity - IC50 II
Description: Radioactivity was measured in the pellet using a Perkin-Elmer γ-counter.
Reprod. […] Reprod. […] Radioactivity was measured in the pellet using a Perkin-Elmer γ-counter. […] The experiment was repeated three times.
Competition Studies: To determine the amount of unlabelled deslorelin required to displace the radioactivity, competition studies were conducted. […] Assays were performed in triplicates. At the end of 4 hr, the incubation tubes were centrifuged at 10,000 g for 20 min at 4° C. to separate the bound fraction. Radioactivity was measured in the pellet using a Perkin-Elmer γ-counter. The same controls as in the kinetic and saturation studies were used. The experiment was repeated three times.

[6] = versus unconjugated nanoparticles, 37° C.
[7] = Corneal Epithelium, 50 μl of 1 mg/ml
[8] = Corneal Stroma, 50 μl of 1 mg/ml

Compound: CCNC(=O)[C@@H]1CCCN1C(=O)[C@H](CCCNC(=N)N)NC(=O)[C@H](CC(C)C)NC(=O)[C@@H](CC(C)C)NC(=O)[C@H](Cc1ccc(O)cc1)NC(=O)[C@H](CO)NC(=O)[C@H](Cc1c[nH]c2ccccc12)NC(=O)[C@H](Cc1c[nH]cn1)NC(=O)[C@@H]1CCC(=O)N1 [leuprolide]
bioavailability ([1]; inhaled or intranasal): 2.9%
bioavailability [1]: 28%

Papp at 4 h, 1 μCi/ml ([2]; corneas isolated at 5 min following 50 μl assay buffer drop): 0.5 ± 0.1 ×10⁻⁶ cm/s
Papp at 4 h, 1 μCi/ml ([2]; corneas isolated at 60 min following 50 μl assay buffer drop): 0.47 ± 0.04 ×10⁻⁶ cm/s
Papp at 4 h, 1 μCi/ml ([2]; freshly isolated corneas): 0.4 ± 0.1 ×10⁻⁶ cm/s
Compound: OC[C@@H](O)[C@@H](O)[C@H](O)[C@H](O)CO [mannitol]

Compound: Transferrin-CA: transferrin-carboxylate-conjugated polystyrene nanoparticles
uptake in bovine conjunctiva at the end of 4 hours ([3]; 37° C.): 2.83±0.03%
cumulative transport in 4 hours across conjunctiva ([3]; 37° C., 100 μg/ml donor): 3.5±0.1%
reduction in conjunctival uptake at 4° C. ([3]; versus 37° C.): 52%
reduction in the cumulative transport in conjunctiva at 4° C. ([3]; versus 37° C.): 89%
increase of percent transport across conjunctiva by conjugation [3, 6]: 51%
Corneal epithelial uptake (60 min) ([4]; Control (4° C.)): 307.1 ± 124 ng/mg tissue/mg dose
Corneal epithelial uptake (60 min) ([4]; Control (37° C.)): 1146.3 ± 306.6 ng/mg tissue/mg dose
Concentration at 5 min [4, 7]: 791 ± 239 ng/mg tissue/mg dose
Concentration at 60 min [4, 7]: 1146 ± 307 ng/mg tissue/mg dose
NP uptake at 5 min (%) [4, 7]: 4.96%
NP uptake at 60 min (%) [4, 7]: 7.19%
NP uptake at 5 min (%) [4, 8]: 10.98%
NP uptake at 60 min (%) [4, 8]: 3.31%
Corneal epithelial uptake (60 min) ([4]; With free ligand (37° C.), free deslorelin or transferrin 1 mg/ml): 467.1 ± 131.9 ng/mg tissue/mg dose
total corneal uptake in 5 min ([4]; summary of Examples 5-8): ~16%
uptake by isolated bovine cornea at the end of 4 hours (excised bovine cornea; 37° C.): 2.36±0.03%
cumulative transport in 4 hours across isolated bovine cornea (excised bovine cornea; 37° C., 100 μg/ml donor): 2.76±0.03%
reduction in corneal uptake at 4° C. (excised bovine cornea; versus 37° C.): 47%
increase of percent transport across bovine cornea by conjugation (excised bovine cornea; [6]): 74%
Zeta potential [5]: −29.24 ± 4.33 mV
Measured Diameter ([5]; 1:1000 dilution in filtered deionized water, includes hydrodynamic layer, n = 3): 84.7 ± 0.8 nm

IC50 (LHRH-receptor; ITP): 32.9 ± 1.25 nM
IC50 (LHRH-receptor; MTA): 53.2 ± 4 nM
IC50 (LHRH-receptor; MTP): 42.1 ± 1.83 nM
IC50 (LHRH-receptor; Pituitary, competition with 125I-deslorelin): 17.9 ± 0.449 nM
high affinity binding sites as share of all the binding sites available (LHRH-receptor; competition studies, nasal tissue regions): 60-70%
Compound: CCNC(=O)[C@@H]1CCCN1C(=O)[C@H](CCCN=C(N)N)NC(=O)[C@H](CC(C)C)NC(=O)[C@@H](Cc1c[nH]c2ccccc12)NC(=O)[C@H](Cc1ccc(O)cc1)NC(=O)[C@H](CO)NC(=O)[C@H](Cc1c[nH]c2ccccc12)NC(=O)[C@H](Cc1cnc[nH]1)NC(=O)[C@@H]1CCC(=O)N1 [deslorelin]
